Experimental data: paper PMC2175090

Target: polymerized MTs purified from the bovine brain (bovine) (UniProt Q6B856)
Test: co-sedimentation

GST-M1 fusion protein encompassing ACF7's M1 domain (domain or fragment)
Kd: 6 µM
